Measurements: publication PMC8714817

Tests used:
[1] = target: HomA, outer membrane protein of Helicobacter pylori (recombinant, C-terminal His-tag) (Helicobacter pylori strain J99); experiment: SDS-PAGE of SEC fractions; monomer and dimer peak fractions of the size exclusion runs on SDS-PAGE with or without beta-mercaptoethanol
[2] = target: HomA, outer membrane protein of Helicobacter pylori (recombinant, C-terminal His-tag) (Helicobacter pylori strain J99); experiment: SAXS; ~2.5 mg/ml protein in 20 mM Tris-Cl pH 8, 200 mM NaCl, 5 mM BME; molecular weight from Porod volume, concentration-independent
[3] = target: HomA, outer membrane protein of Helicobacter pylori (recombinant, C-terminal His-tag) (Helicobacter pylori strain J99); experiment: SEC; 1 mg protein on Superose 12, 50 mM Tris-Cl pH 8.0, 300 mM NaCl, 4 °C, 0.5 ml/min; alone or with detergents (LDAO, CHAPS, TWEEN 20) or 1 mM lipids (DMPC, DOPC); calibrated with molecular weight markers
[4] = target: HomB, outer membrane protein of Helicobacter pylori (recombinant, C-terminal His-tag) (Helicobacter pylori strain J99); experiment: SDS-PAGE of SEC fractions; monomer and dimer peak fractions of the size exclusion runs on SDS-PAGE with or without beta-mercaptoethanol
[5] = target: HomB, outer membrane protein of Helicobacter pylori (recombinant, C-terminal His-tag) (Helicobacter pylori strain J99); experiment: SAXS; ~2.5 mg/ml protein in 20 mM Tris-Cl pH 8, 200 mM NaCl, 5 mM BME; molecular weight from Porod volume, concentration-independent
[6] = target: HomB, outer membrane protein of Helicobacter pylori (recombinant, C-terminal His-tag) (Helicobacter pylori strain J99); experiment: SEC; 1 mg protein on Superose 12, 50 mM Tris-Cl pH 8.0, 300 mM NaCl, 4 °C, 0.5 ml/min; alone or with detergents (LDAO, CHAPS, TWEEN 20) or 1 mM lipids (DMPC, DOPC); calibrated with molecular weight markers

Measured: stoichiometry N

HomA, outer membrane protein of Helicobacter pylori (recombinant, C-terminal His-tag) (natural protein)
2: [1] | [2] | [3]

HomB, outer membrane protein of Helicobacter pylori (recombinant, C-terminal His-tag) (natural protein)
2: [4] | [5] | [6]
